The values below are quoted from earlier work in publication PMC5973875.

Data set [1] has as its target Protein S (Homo sapiens) (UniProt P07225).
Data set [2] has the same target. This is another data set of the same source.

Like-named read-outs stand apart in the source and are kept apart here.

UniProt P07225, sequence (P07225 42-676): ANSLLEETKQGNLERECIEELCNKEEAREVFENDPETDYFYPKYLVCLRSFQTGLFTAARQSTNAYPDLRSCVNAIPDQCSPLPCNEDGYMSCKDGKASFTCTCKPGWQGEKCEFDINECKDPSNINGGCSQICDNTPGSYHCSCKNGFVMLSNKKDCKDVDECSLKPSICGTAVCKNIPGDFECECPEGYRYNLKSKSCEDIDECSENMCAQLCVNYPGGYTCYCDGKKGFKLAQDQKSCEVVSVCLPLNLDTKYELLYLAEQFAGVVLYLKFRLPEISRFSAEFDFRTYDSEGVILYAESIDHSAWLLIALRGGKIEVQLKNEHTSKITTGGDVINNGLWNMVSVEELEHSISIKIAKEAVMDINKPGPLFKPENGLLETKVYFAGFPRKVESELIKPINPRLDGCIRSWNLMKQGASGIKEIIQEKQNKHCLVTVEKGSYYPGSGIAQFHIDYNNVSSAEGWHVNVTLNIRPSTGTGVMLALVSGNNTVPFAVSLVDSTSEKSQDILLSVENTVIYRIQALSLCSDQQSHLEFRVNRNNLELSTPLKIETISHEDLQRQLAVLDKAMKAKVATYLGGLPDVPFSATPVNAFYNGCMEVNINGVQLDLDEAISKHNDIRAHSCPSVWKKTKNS

The term Kd denotes a measure of binding affinity in units of concentration. On to “Factor Va heavy chain (from UniProt P12259)”, for which the Kd in the data set with Protein S (Homo sapiens) [1] is 33 nM.

On to C4BP (from UniProt P04003), for which the Kd in the data set with Protein S (Homo sapiens) [2] is 0.1 nM.
